Test results as given in article PMC5765355, “Phosphorylation of Pnut in the Early Stages of Drosophila Embryo Development Affects Association of the Septin Complex with the Membrane and Is Important for Viability” (G3: Genes|Genomes|Genetics, 2017).
Changes are numbered by the printed parent chain.

T1: His-tagged nonphosphorylatable Pnut-T509A/S517A (Drosophila melanogaster, UniProt P40797 1-539, T509A | S517A)
T1 construct: Septin Pnut (Peanut), Drosophila melanogaster, with T509A and S517A; source: baculovirus expression system, expressed together with Sep1 and Sep2; assembled complex purified
T1 sequence (looked up): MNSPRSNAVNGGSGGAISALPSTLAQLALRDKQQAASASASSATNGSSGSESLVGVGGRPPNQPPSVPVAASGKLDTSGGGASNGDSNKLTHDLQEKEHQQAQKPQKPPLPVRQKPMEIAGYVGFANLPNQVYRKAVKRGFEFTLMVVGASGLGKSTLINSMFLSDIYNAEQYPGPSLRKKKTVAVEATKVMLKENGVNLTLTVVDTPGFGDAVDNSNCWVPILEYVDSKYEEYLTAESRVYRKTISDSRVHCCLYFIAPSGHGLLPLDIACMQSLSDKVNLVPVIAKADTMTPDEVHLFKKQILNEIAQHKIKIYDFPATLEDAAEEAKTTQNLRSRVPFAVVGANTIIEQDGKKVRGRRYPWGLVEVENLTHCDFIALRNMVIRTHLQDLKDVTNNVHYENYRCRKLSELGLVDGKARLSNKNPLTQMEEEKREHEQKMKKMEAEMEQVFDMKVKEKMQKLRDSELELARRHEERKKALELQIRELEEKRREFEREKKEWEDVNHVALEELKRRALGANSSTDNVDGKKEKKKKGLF

T2: His-tagged wild-type Pnut (Drosophila melanogaster, UniProt P40797 1-539)
T2 construct: Septin Pnut (Peanut), Drosophila melanogaster, wild type; homolog of human SEPT7; also called His–Pnut; Pnut-WT; source: baculovirus expression system, expressed together with Sep1 and Sep2; assembled complex purified
T2 sequence (looked up): T1 sequence (looked up) with A509T, A517S

T3: His-tagged phospho-mimetic Pnut-T509E/S517E (Drosophila melanogaster, UniProt P40797 1-539, T509E | S517E)
T3 construct: Septin Pnut (Peanut), Drosophila melanogaster, with T509E and S517E; also called T509E/S517E mutant; source: baculovirus expression system, expressed together with Sep1 and Sep2; assembled complex purified
T3 sequence (looked up): T1 sequence (looked up) with A509E, A517E

B1: Sep1 (recombinant) (natural protein, Drosophila melanogaster, UniProt P42207 1-361, looked up)
chain: MADTKGFSSIETPGYVGFANLPNQVHRKSVKKGFEFTLMVVGESGLGKSTLVNSLFLTDLYPERIIPDAIEKQKQTVKLEASTVEIEERGVKLRLTVVDTPGFGDAIDNSNSFGAILEYIDEQYERFLRDESGLNRRNIVDNRIHCCFYFISPFGHGLKPLDVEFMKKLHSKVNIVPVIAKADCLTKKEILRLKCRIMQEIESHGIKIYPLPDCDSDEDEDYKEQVKQLKEAVPFAVCGANTLLEVKGKKVRGRLYPWGVVEVENPDHCDFIKLRTMLITHMQDLQEVTQEVHYENYRSDRLAKGIKGKENGVKAERDSSSQVVSNSVLGEKDRILQEKEAELRRMQEMLAQMQARMQAQQ
notes: Septin Sep1, Drosophila melanogaster; homolog of human SEPT2; source: baculovirus expression system, expressed together with His-tagged Pnut and Sep2; assembled complex purified
B2: Sep2 (recombinant) (natural protein, Drosophila melanogaster, UniProt P54359 1-419, looked up)
chain: MSVEVDFVDKKEVHLRTLKQSGHVGFDSLPDQLVNKSVQNGFVFNVMCIGETGLGKSTLMDTLFNTSFESTPSPHTLPSVKLKAHTYELQESNVRLKLTICDTVGYGDQINKDDSFKAVVDYIDAQFENYLQEELKIKRSLVTCHDSRIHICLYFICPTGHGLKSLDLVCMKKLDSKVNIIPVIAKADTISKVELQRFKAKIIQELNANGVHIYQFPTDDETVAETNTSMNSHIPFAVVGSTEFIKVGNKLIRARQYPWGTVQVENETHCDFVKLREMLIRTNMEDMREKTHTRHYELYRQKRLEQMGFSDVDSDNKPISFQQTFEAKRSNHLAELQSKEEEVRQMFVQRVKEKEAELKESEKDLHAKFEKLKRDHAEEKRKLEESRKALEEDYLDFQRRKQQLATAHHTLTLGKSKKK
notes: Septin Sep2, Drosophila melanogaster; homolog of human SEPT6; source: baculovirus expression system, expressed together with His-tagged Pnut and Sep1; assembled complex purified

Tests used:
Conditions in all cases: both partners purified
[1] = biological target: T1, His-tagged nonphosphorylatable …; assay: pull-down; 2 µg purified recombinant septin complex diluted in 200 µl pull-down buffer (25 mM HEPES pH 7.6, 2 mM MgCl2, 10 mM imidazole) with 300 mM KCl; His-Pnut held on HisPur Ni-NTA resin, 1 hr at 22°; eluted with 250 mM imidazole; silver-stained SDS-PAGE; Sep1 given as a percentage of the Pnut amount
[2] = biological target: T2, His-tagged wild-type Pnut; assay: as above
[3] = biological target: T3, His-tagged phospho-mimetic …; assay: as above
[4] = biological target: T1, His-tagged nonphosphorylatable …; assay: pull-down; 2 µg purified recombinant septin complex diluted in 200 µl pull-down buffer (25 mM HEPES pH 7.6, 2 mM MgCl2, 10 mM imidazole) with 50 mM KCl; His-Pnut held on HisPur Ni-NTA resin, 1 hr at 22°; eluted with 250 mM imidazole; silver-stained SDS-PAGE; Sep1 given as a percentage of the Pnut amount
[5] = biological target: T2, His-tagged wild-type Pnut; assay: as above
[6] = biological target: T3, His-tagged phospho-mimetic …; assay: as above

| Binder | amount of Sep1 as a percentage of the Pnut amount [1] | amount of Sep1 as a percentage of the Pnut amount [2] | amount of Sep1 as a percentage of the Pnut amount [3] | amount of Sep1 as a percentage of the Pnut amount [4] | amount of Sep1 as a percentage of the Pnut amount [5] | amount of Sep1 as a percentage of the Pnut amount [6] | binding result [1] | binding result [2] | binding result [6] |
| --- | --- | --- | --- | --- | --- | --- | --- | --- | --- |
| B1 | 62% | 62.3% | 31% | 17% | 34% | 1% |  |  |  |
| B2 |  |  |  |  |  |  | binds | binds | binds |
